# Reference: article PMC7859202, “A scaffold lncRNA shapes the mitosis to meiosis switch”
# T1: RRM3Mei2 (Schizosaccharomyces pombe, UniProt P08965 579-750)
# T1 sequence: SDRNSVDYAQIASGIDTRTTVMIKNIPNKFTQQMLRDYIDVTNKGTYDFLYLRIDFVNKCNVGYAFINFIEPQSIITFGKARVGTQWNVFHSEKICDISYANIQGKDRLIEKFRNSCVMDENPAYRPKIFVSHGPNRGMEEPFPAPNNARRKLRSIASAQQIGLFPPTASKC
# B1: U7GU7 (ssRNA)
# RNA: UUUUUUUGUUUUUUU
# B2: U6GGU7 (ssRNA)
# RNA: UUUUUUGGUUUUUUU
# B3: poly-U15 (ssRNA)
# RNA: UUUUUUUUUUUUUUU
# B4: GCUUUUUGUUCG 12-mer (ssRNA)
# RNA: GCUUUUUGUUCG
# Target: T1, RRM3Mei2
# Assay: ITC; ITC: 20 mM Tris-HCl pH 7.5, 200 mM NaCl, 5 mM 2-mercaptoethanol, 20 °C; N fixed to 1
# Details: protein: recombinant; tags: GST-tag removed by 3C protease
row,Binder,Kd [nM]
1,B1,145 ± 26
2,B2,435 ± 112
3,B3,1430 ± 194
4,B4,555 ± 166
